T1: B3GNT2 (Homo sapiens, UniProt Q9NY97)
T1 construct: The respective ORFs of candidate genes [CD274 (NM_014143), MCL1 (NM_021960), JUNB (NM_002229), and B3GNT2 (NM_006577)] were synthesized; expressed in transfected cells; host or cells: A375 melanoma cells (lentiviral ORF overexpression)
T1 sequence (Q9NY97 1-397): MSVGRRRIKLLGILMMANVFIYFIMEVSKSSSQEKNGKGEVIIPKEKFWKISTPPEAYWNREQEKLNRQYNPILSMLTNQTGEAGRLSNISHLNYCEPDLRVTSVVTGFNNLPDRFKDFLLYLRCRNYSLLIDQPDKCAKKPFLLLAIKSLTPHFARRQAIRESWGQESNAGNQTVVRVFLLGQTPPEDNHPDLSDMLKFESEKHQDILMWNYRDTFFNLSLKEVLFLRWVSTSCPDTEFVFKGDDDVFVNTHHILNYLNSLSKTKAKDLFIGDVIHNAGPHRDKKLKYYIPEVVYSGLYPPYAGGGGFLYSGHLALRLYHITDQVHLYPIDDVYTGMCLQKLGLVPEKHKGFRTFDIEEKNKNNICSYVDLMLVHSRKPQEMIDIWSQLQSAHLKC


Target: T1, B3GNT2
Assay: Co-IP of FLAG-tagged B3GNT2 followed by mass spectrometry
Type: cell-based
Set-up: C-term IgG / C-term flag: unit not given here
Conditions: mass spectrometry count, unit not given; for C-term flag / N-term FLAG: Co-IP with FLAG antibody; for C-term flag / C-term IgG: C-terminally FLAG-tagged B3GNT2; for N-term FLAG / N-term IgG: N-terminally FLAG-tagged B3GNT2; for C-term IgG / N-term IgG: Co-IP with IgG control antibody
Procedure, shortened: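 FLAG-tagged B3GNT2 immunoprecipitated from cell lysate (HEPES, 1% Triton X-100, 150 mM NaCl) with anti-FLAG versus […], overnight at 4° C, then captured on Protein A/G magnetic beads for 4 h. Two biological replicates per condition. Peptides fractionated and analyzed by nano-LC on an Orbitrap Elite in data-dependent mode.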

| Molecule | C-term flag | N-term FLAG | C-term IgG | N-term IgG |
| --- | --- | --- | --- | --- |
| TUBA1C (protein, UniProt Q9BQE3 1-449, looked up) Tubulin alpha-1C chain: MRECISIHVGQAGVQIGNACWELYCLEHGIQPDGQMPSDKTIGGGDDSFNTFFSETGAGKHVPRAVFVDLEPTVIDEVRTGTYRQLFHPEQLITGKEDAANNYARGHYTIGKEIIDLVLDRIRKLADQCTGLQGFLVFHSFGGGTGSGFTSLLMERLSVDYGKKSKLEFSIYPAPQVSTAVVEPYNSILTTHTTLEHSDCAFMVDNEAIYDICRRNLDIERPTYTNLNRLISQIVSSITASLRFDGALNVDLTEFQTNLVPYPRIHFPLATYAPVISAEKAYHEQLTVAEITNACFEPANQMVKCDPRHGKYMACCLLYRGDVVPKDVNAAIATIKTKRTIQFVDWCPTGFKVGINYQPPTVVPGGDLAKVQRAVCMLSNTTAVAEAWARLDHKFDLMYAKRAFVHWYVGEGMEEGEFSEAREDMAALEKDYEEVGADSADGEDEGEEY | 63 | 76 | 14 | 8 |
| ACSL3 (protein) MNNHVSSKPSTMKLKHTINPILLYFIHFLISLYTILTYIPFYFFSESRQEKSNRIKAKPVNSKPDSAYRSVNSLDGLASVLYPGCDTLDKVFTYAKNKFKNKRLLGTREVLNEEDEVQPNGKIFKKVILGQYNWLSYEDVFVRAFNFGNGLQMLGQKPKTNIAIFCETRAEWMIAAQACFMYNFQLVTLYATLGGPAIVHALNETEVTNIITSKELLQTKLKDIVSLVPRLRHIITVDGKPPTWSEFPKGIIVHTMAAVEALGAKASMENQPHSKPLPSDIAVIMYTSGSTGLPKGVMISHSNIIAGITGMAERIPELGEEDVYIGYLPLAHVLELSAELVCLSHGCRIGYSSPQTLADQSSKIKKGSKGDTSMLKPTLMAAVPEIMDRIYKNVMNKVSEMSSFQRNLFILAYNYKMEQISKGRNTPLCDSFVFRKVRSLLGGNIRLLLCGGAPLSATTQRFMNICFCCPVGQGYGLTESAGAGTISEVWDYNTGRVGAPLVCCEIKLKNWEEGGYFNTDKPHPRGEILIGGQSVTMGYYKNEAKTKADFFEDENGQRWLCTGDIGEFEPDGCLKIIDRKKDLVKLQAGEYVSLGKVEAALKNLPLVDNICAYANSYHSYVIGFVVPNQKELTELARKKGLKGTWEELCNSCEMENEVLKVLSEAAISASLEKFEIPVKIRLSPEPWTPETGLVTDAFKLKRKELKTHYQADIERMYGRK | 5 | 5 | 0 | 0 |
| HLA-A (protein) MHC heavy: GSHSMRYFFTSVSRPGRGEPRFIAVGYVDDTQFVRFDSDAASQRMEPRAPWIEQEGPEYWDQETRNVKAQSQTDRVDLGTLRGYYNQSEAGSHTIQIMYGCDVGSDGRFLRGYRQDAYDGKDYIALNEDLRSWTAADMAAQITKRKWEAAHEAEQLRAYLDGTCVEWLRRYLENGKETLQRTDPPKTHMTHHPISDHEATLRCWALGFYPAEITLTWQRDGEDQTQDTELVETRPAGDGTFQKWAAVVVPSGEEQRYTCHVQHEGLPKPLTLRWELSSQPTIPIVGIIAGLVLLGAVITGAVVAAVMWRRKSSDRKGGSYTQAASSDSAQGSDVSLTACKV | 4 | 6 | 0 | 0 |
| SFXN3 (protein) MGELPLDINIQEPRWDQSTFLGRARHFFTVTDPRNLLLSGAQLEASRNIVQNYRAGVVTPGITEDQLWRAKYVYDSAFHPDTGEKVVLIGRMSAQVPMNMTITGCMLTFYRKTPTVVFWQWVNQSFNAIVNYSNRSGDTPITVRQLGTAYVSATTGAVATALGLKSLTKHLPPLVGRFVPFAAVAAANCINIPLMRQRELQVGIPVADEAGQRLGYSVTAAKQGIFQVVISRICMAIPAMAIPPLIMDTLEKKDFLKRRPWLGAPLQVGLVGFCLVFATPLCCALFPQKSSIHISNLEPELRAQIHEQNPSVEVVYYNKGL | 2 | 0 | 0 | 0 |
| MYO1D (protein) AEQESLEFGKADFVLMDTVSMPEFMANLRLRFEKGRIYTFIGEVVVSVNPYKLLNIYGRDTIEQYKGRELYERPPHLFAIADAAYKAMKRRSKDTCIVISGESGAGKTEASKYIMQYIAAITNPSQRAEVERVKNMLLKSNCVLEAFGNAKTNRNDNSSRFGKYMDINFDFKGDPIGGHINNYLLEKSRVIVQQPGERSFHSFYQLLQGGSEQMLRSLHLQKSLSSYNYIHVGAQLKSSINDAAEFRVVADAMKVIGFKPEEIQTVYKILAAILHLGNLKFVVDGDTPLIENGKVVSIIAELLSTKTDMVEKALLYRTVATGRDIIDKQHTEQEASYGRDAFAKAIYERLFCWIVTRINDIIEVKNYDTTIHGKNTVIGVLDIYGFEIFDNNSFEQFCINYCNEKLQQLFIQLVLKQEQEEYQREGIPWKHIDYFNNQIIVDLVEQQHKGIIAILDDACMNVGKVTDEMFLEALNSKLGKHAHFSSRKLCASDKILEFDRDFRIRHYAGDVVYSVIGFIDKNKDTLFQDFKRLMYNSSNPVLKNMWPEGKLSITEVTKRPLTAATLFKNSMIALVDNLASKEPYYVRCIKPNDKKSPQIFDDERCRHQVEYLGLLENVRVRRAGFAFRQTYEKFLHRYKMISEFTWPNHDLPSDKEAVKKLIERCGFQDDVAYGKTKIFIRTPRTLFTLEELRAQMLIRIVLFLQKVWRGTLARMRYKRTKAALTIIRYYRRYKVKSYIHEVARRFHGVKTMRDYGKHVKWPSPPKVLRRFEEALQTIFNRWRASQLIKSIPASDLPQVRAKVAAVEMLKGQRADLGLQRAWEGNYLASKPDTPQTSGTFVPVANELKRKDKYMNVLFSCHVRKVNRFSKVEDRAIFVTDRHLYKMDPTKQYKVMKTIPLYNLTGLSVSNGKDQLVVFHTKDNKDLIVCLFSKQPTHESRIGELVGVLVNHFKSEKRHLQVNVTNPVQCSLHGKKCTVSVETRLNQPQPDFTKNRSGFILSVPGN | 2 | 0 | 0 | 0 |
| SLC25A10 (protein) MAAEARVSRWYFGGLASCGAACCTHPLDLLKVHLQTQQEVKLRMTGMALRVVRTDGILALYSGLSASLCRQMTYSLTRFAIYETVRDRVAKGSQGPLPFHEKVLLGSVSGLAGGFVGTPADLVNVRMQNDVKLPQGQRRNYAHALDGLYRVAREEGLRRLFSGATMASSRGALVTVGQLSCYDQAKQLVLSTGYLSDNIFTHFVASFIAAAGDEPPPQGGCATFLCQPLDVLKTRLMNSKGEYQGVFHCAVETAKLGPLAFYKGLVPAGIRLIPHTVLTFVFLEQLRKNFGIKVPS | 6 | 5 | 0 | 0 |
| SLC25A22 (protein) MADKQISLPAKLINGGIAGLIGVTCVFPIDLAKTRLQNQQNGQRVYTSMSDCLIKTVRSEGYFGMYRGAAVNLTLVTPEKAIKLAANDFFRHQLSKDGQKLTLLKEMLAGCGAGTCQVIVTTPMEMLKIQLQDAGRIAAQRKILAAQGQLSAQGGAQPSVEAPAAPRPTATQLTRDLLRSRGIAGLYKGLGATLLRDVPFSVVYFPLFANLNQLGRPASEEKSPFYVSFLAGCVAGSAAAVAVNPCDVVKTRLQSLQRGVNEDTYSGILDCARKILRHEGPSAFLKGAYCRALVIAPLFGIAQVVYFLGIAESLLGLLQDPQA | 2 | 0 | 0 | 0 |
| DNAJA3 (protein) GVSLTGTKHNPFICTASFHTSAPLAKEDYYQILGVPRNASQKEIKKAYYQLAKKYHPDTNKDDPKAKEKFSQLAEAYEVLSDEVKRKQYDAYGSAGFDPGASGSQHSYWKGGPTVDPEELFRKIFGEFSSSSFGDFQTVFDQPQEYFMELTFNQAAKGVNKEFTVNIMDTCERCNGKGNEPGTKVQHCHYCGGSGMETINTGPFVMRSTCRRCGGRGSIIISPCVVCRGAGQAKQKKRVMIPVPAGVEDGQTVRMPVGKREIFITFRVQKSPVFRRDGADIHSDLFISIAQALLGGTARAQGLYETINVTIPPGTQTDQKIRMGGKGIPRINSYGYGDHYIHIKIRVPKRLTSRQQSLILSYAEDETDVEGTVNGVTLTSSGKRSTGN | 2 | 0 | 0 | 0 |
| TM9SF3 (protein) DEHEHTYQDKEEVVLWMNTVGPYHNRQETYKYFSLPFCVGSKKSISHYHETLGEALQGVELEFSGLDIKFKDDVMPATYCEIDLDKEKRDAFVYAIKNHYWYQMYIDDLPIWGIVGEADENGEDYYLWTYKKLEIGFNGNRIVDVNLTSEGKVKLVPNTKIQMSYSVKWKKSDVKFEDRFDKYLDPSFFQHRIHWFSIFNSFMMVIFLVGLVSMILMRTLRKDYARYSKEEEMDDMDRDLGDEYGWKQVHGDVFRPSSHPLIFSSLIGSGCQIFAVSLIVIIVAMIEDLYTERGSMLSTAIFVYAATSPVNGYFGGSLYARQGGRRWIKQMFIGAFLIPAMVCGTAFFINFIAIYYHASRAIPFGTMVAVCCICFFVILPLNLVGTILGRNLSGQPNFPCRVNAVPRPIPEKKWFMEPAVIVCLGGILPFGSIFIEMYFIFTSFWAYKIYYVYGFMMLVLVILCIVTVCVTIVCTYFLLNAEDYRWQWTSFLSAASTAIYVYMYSFYYYFFKTKMYGLFQTSFYFGYMAVFSTALGIMCGAIGYMGTSAFVRKIYTNVKID | 11 | 0 | 0 | 0 |
